B1: Triple mutant B: Arrestin-3 triple mutant containing T299A, I386A and R166A when compared to human wt arrestin-3 (protein)
chain: MGEKPGTRVFKKSSPNCKLTVYLGKRDFVDHLDKVDPVDGVVLVDPDYLKDRKVFVTLTCAFRYGREDLDVLGLSFRKDLFIATYQAFPPVPNPPRPPTRLQDRLLRKLGQHAHPFFFTIPQNLPCSVTLQPGPEDTGKACGVDFEIRAFCAKSLEEKSHKRNSVALVIRKVQFAPEKPGPQPSAETTRHFLMSDRSLHLEASLDKELYYHGEPLNVNVHVTNNSTKTVKKIKVSVRQYADICLFSTAQYKCPVAQLEQDDQVSPSSTFCKVYTITPLLSDNREKRGLALDGKLKHEDANLASSTIVKEGANKEVLGILVSYRVKVKLVVSRGGDVSVELPFVLMHPKPHDHIPLPRPQSAAPETDVPVDTNLIEFDTNYATDDDAVFEDFARLRLKGMKDDDYDDQLC
modifications: Arrestin-3 triple mutant B containing T299A, I386A and R166A
B2: Triple mutant C: Arrestin-3 triple mutant containing T299A, I386A and D298A when compared to human wt arrestin-3 (protein)
chain: MGEKPGTRVFKKSSPNCKLTVYLGKRDFVDHLDKVDPVDGVVLVDPDYLKDRKVFVTLTCAFRYGREDLDVLGLSFRKDLFIATYQAFPPVPNPPRPPTRLQDRLLRKLGQHAHPFFFTIPQNLPCSVTLQPGPEDTGKACGVDFEIRAFCAKSLEEKSHKRNSVRLVIRKVQFAPEKPGPQPSAETTRHFLMSDRSLHLEASLDKELYYHGEPLNVNVHVTNNSTKTVKKIKVSVRQYADICLFSTAQYKCPVAQLEQDDQVSPSSTFCKVYTITPLLSDNREKRGLALDGKLKHEAANLASSTIVKEGANKEVLGILVSYRVKVKLVVSRGGDVSVELPFVLMHPKPHDHIPLPRPQSAAPETDVPVDTNLIEFDTNYATDDDAVFEDFARLRLKGMKDDDYDDQLC
modifications: Arrestin-3 triple mutant C containing T299A, I386A and D298A
B3: Triple mutant D: Arrestin-3 triple mutant containing T299A, I386A and R393A when compared to human wt arrestin-3 (protein)
chain: MGEKPGTRVFKKSSPNCKLTVYLGKRDFVDHLDKVDPVDGVVLVDPDYLKDRKVFVTLTCAFRYGREDLDVLGLSFRKDLFIATYQAFPPVPNPPRPPTRLQDRLLRKLGQHAHPFFFTIPQNLPCSVTLQPGPEDTGKACGVDFEIRAFCAKSLEEKSHKRNSVRLVIRKVQFAPEKPGPQPSAETTRHFLMSDRSLHLEASLDKELYYHGEPLNVNVHVTNNSTKTVKKIKVSVRQYADICLFSTAQYKCPVAQLEQDDQVSPSSTFCKVYTITPLLSDNREKRGLALDGKLKHEDANLASSTIVKEGANKEVLGILVSYRVKVKLVVSRGGDVSVELPFVLMHPKPHDHIPLPRPQSAAPETDVPVDTNLIEFDTNYATDDDAVFEDFAALRLKGMKDDDYDDQLC
modifications: Arrestin-3 triple mutant D containing T299A, I386A and R393A

Target: T1, β2-adrenergic receptor (β2AR, B2AR) (Homo sapiens, UniProt P07550)
T1 construct: expressed in transfected cells; host or cells: HEK293 cells (transient co-transfection, Lipofectamine 2000)
Experiment: BRET arrestin recruitment assay: isoproterenol-induced recruitment of GFP-arrestin-3 WT or mutants to RLuc8-β2AR
Format: cell-based
Settings: for Potency (pEC50 ± Std. error): isoproterenol concentration giving half-maximal arrestin recruitment to β2AR, BRET AUC over 19.5 min, isoproterenol 10 pM to 10 μM; for Recruitment to B2AR compared to wild-type arrestin-3 (in words): isoproterenol concentration-response curves, FIG. 1; for Efficacy (Emax ± Std. error) in %, normalized to WT: maximal isoproterenol-induced recruitment to β2AR, WT arrestin-3 at 10 μM isoproterenol set to 100%
Protocol: […] were seeded onto poly-L-lysine coated, white, 96-well plates at a density of ˜25,000 cells per well. […] The day following transfection, cell culture medium was exchanged with fresh medium. Another 24 h later cell culture medium was replaced with assay buffer (HBSS+20 mM HEPES and pH 7.4) and cells were treated with 5 μM cell-permeable substrate Coelenterazine 400A (Cayman Chemical), which is catalysed by the BRET donor RLuc8, resulting in the emission of light (λmax=410 nm). BRET measurement was performed in a plate reader PheraStar FSX (BMG Biotech) with the optical module (BRET2 plus, 515-30, 410-80). At t=4.5 min, isoproterenol (Tocris Bioscience) was added at increasing concentrations to the cells (from 10 pM to 10 μM). BRET ratio was determined by calculating the ratio of the light intensity emitted by the GFP (515 nm) over the light intensity emitted by the Rluc8/Coelenterazine 400A (410 nm). […] The coefficient of determination R^2 can range between 0 and 1 and represents the quality of the fitting between the experimental values (marks, FIG. 1) and the non-linear regression analysis (curves, FIG. 1). Experiments were performed in technical duplicates in two independent experiments.
An arrestin recruitment assay based on Bioluminescence Resonance Energy Transfer (BRET) was performed to compare the recruitment efficiencies of arrestin-3 double and triple mutants with wild-type arrestin-3 towards B2AR.
The recruitment responses can be defined by two pharmacological parameters: potency and efficacy. In general, efficacy (Emax) is a measure of the maximum effect that is expected from a compound/drug. […] Potency is often given as the EC50 value, which defines the amount of compound required to produce 50% of that compound's maximal effect. For simpler illustration, the pEC50 value, which is the negative logarithm of the EC50 in molar concentrations, is shown.
The potency (pEC50) represents the molar concentration of isoproterenol necessary to obtain half of the total recruitment of arrestin-3 or efficiency (Emax) for each arrestin.

Row | Molecule | Potency (pEC50 ± Std. error) | Recruitment to B2AR compared to wild-type arrestin-3 (in words) | Efficacy (Emax ± Std. error) in %, normalized to WT | EC50 (converted from pEC50, isoproterenol-induced recruitment to β2AR, read-out: Potency expressed as isoproterenol concentration)
1 | Double mutant A: Arrestin-3 double mutant containing T299A and I386A when compared to human wt arrestin-3 | 7.1±0.03 | increased recruitment efficacy | 131.5±1.82% | –
2 | B1 | 7.3±0.06 | increased recruitment efficacy | 103.0 ± 2.53% | 0.0501 µM
3 | B2 | 7.2 ± 0.04 | – | 108.9 ± 1.84% | –
4 | B3 | 7.2 ± 0.03 | – | 89.2 ± 1.23% | –
